Reference: patent US8147838B2, “Peptide” (priority 2005, dated 2012)

Biological target: MHC class I allele A*0101 (A1) (Homo sapiens, UniProt P04439, A114D/A174V/A182V/D101N/D185E/E176A/E190D/L180R/Q94H/R68K/S129P/T187R/V100A/V91M/W191G)
Test: iTopia peptide binding assay, A*0101
Conditions: percent of positive control peptide binding; peptide at 1.11×10^−5M
Description: (§1) The 9 mers were tested for Peptide Binding, Off Rate and Affinity using iTopia Epitope Discovery System in accordance with the manufacturer's instructions. Briefly, 96 well microtitre plates coated with MHC molecules representing different MHC alleles are used to identify candidate peptides. […] Determinations are performed in duplicate using an ELISA plate reader and included allele specific positive controls.
(§2) i) Peptide Binding—This assay measures the ability of individual peptides to bind to the MHC molecules under standardized optimal binding conditions. The assay is performed for all the test peptides across the selected MHC alleles. The test peptides identified as “binders” are characterized further in terms of affinity and dissociation experiments.
(§3) Following a period of binding under optimal conditions, excess antibody is removed and a measurement of total fluorescence taken (D).
(§4) The binding of the test peptides to the MHC molecules was performed at 1.11×10^−5M of peptide under optimal, standardised test conditions. A control peptide was run in parallel on the same plate and at the same concentration as the test peptides.
(§5) The level of binding is expressed as a percent of positive control peptide binding for each allele.

Sequence | Peptide binding, MHC Class I Molecule A*0101
ESLHLEDNA [Peptide 131] | 2 % of control
ETEVVQGKD [Peptide 156] | 0 % of control
GAIFLLVLY [Peptide 184] | 0 % of control
GKDRLTCAY [Peptide 159] | 3 % of control
HLESLHLED [Peptide 130] | 4 % of control
HNPLADLSP [Peptide 76] | 5 % of control
IFLLVLYLN [Peptide 185] | 0 % of control
INADPRLTN [Peptide 203] | 0 % of control
IRVFLDNNP [Peptide 144] | 0 % of control
IVPPEDERQ [Peptide 92] | 6 % of control
KGIKKWMHN [Peptide 190] | 3 % of control
LCECSEAAR [Peptide 33] | 3 % of control
LDNNPWVCD [Peptide 146] | 0 % of control
LELNSADLD [Peptide 168] | 0 % of control
LGIVLALIG [Peptide 180] | 0 % of control
LHLEDNALK [Peptide 132] | 4 % of control

Biological target: MHC class I allele A*0201 (A2) (Homo sapiens, UniProt P04439, D140Y/D185E/D98H/E176V/E277Q/G131W/G231S/I119V/I121R/I166T/I218V/L300P/L318F/N151K/N90K/P208A/P217A/Q86G/Q94H/R138H/R169H/T345S)
Test: iTopia peptide binding assay, A*0201
Conditions: percent of positive control peptide binding; peptide at 1.11×10^−5M
Description: as §1, §2, §3, §4, §5

Sequence | Peptide binding, MHC Class I Molecule A*0201
ESLHLEDNA [Peptide 131] | 8 % of control
ETEVVQGKD [Peptide 156] | 1 % of control
GAIFLLVLY [Peptide 184] | 5 % of control
GKDRLTCAY [Peptide 159] | 6 % of control
HLESLHLED [Peptide 130] | 3 % of control
HNPLADLSP [Peptide 76] | 7 % of control
IFLLVLYLN [Peptide 185] | 8 % of control
INADPRLTN [Peptide 203] | 3 % of control
IRVFLDNNP [Peptide 144] | 4 % of control
IVPPEDERQ [Peptide 92] | 12 % of control
KGIKKWMHN [Peptide 190] | 14 % of control
LCECSEAAR [Peptide 33] | 8 % of control
LDNNPWVCD [Peptide 146] | 0 % of control
LELNSADLD [Peptide 168] | 3 % of control
LGIVLALIG [Peptide 180] | 10 % of control
LHLEDNALK [Peptide 132] | 4 % of control

Biological target: MHC class I allele A*0301 (A3) (Homo sapiens, UniProt P04439)
Test: iTopia peptide binding assay, A*0301
Conditions: percent of positive control peptide binding; peptide at 1.11×10^−5M
Description: as §1, §2, §3, §4, §5

Sequence | Peptide binding, MHC Class I Molecule A*0301
ESLHLEDNA [Peptide 131] | 0 % of control
ETEVVQGKD [Peptide 156] | 3 % of control
GAIFLLVLY [Peptide 184] | 5 % of control
GKDRLTCAY [Peptide 159] | 6 % of control
HLESLHLED [Peptide 130] | 2 % of control
HNPLADLSP [Peptide 76] | 3 % of control
IFLLVLYLN [Peptide 185] | 0 % of control
INADPRLTN [Peptide 203] | 1 % of control
IRVFLDNNP [Peptide 144] | 3 % of control
IVPPEDERQ [Peptide 92] | 3 % of control
KGIKKWMHN [Peptide 190] | 3 % of control
LCECSEAAR [Peptide 33] | 0 % of control
LDNNPWVCD [Peptide 146] | 2 % of control
LELNSADLD [Peptide 168] | 5 % of control
LGIVLALIG [Peptide 180] | 1 % of control
LHLEDNALK [Peptide 132] | 5 % of control

Biological target: MHC class I allele B*0702 (B7) (Homo sapiens, UniProt P01889)
Test: iTopia peptide binding assay, B*0702
Conditions: percent of positive control peptide binding; peptide at 1.11×10^−5M
Description: as §1, §2, §3, §4, §5

Sequence | Peptide binding, MHC Class I Molecule B*0702
ESLHLEDNA [Peptide 131] | 0 % of control
ETEVVQGKD [Peptide 156] | 1 % of control
GAIFLLVLY [Peptide 184] | 0 % of control
GKDRLTCAY [Peptide 159] | 4 % of control
HLESLHLED [Peptide 130] | 2 % of control
HNPLADLSP [Peptide 76] | 5 % of control
IFLLVLYLN [Peptide 185] | 2 % of control
INADPRLTN [Peptide 203] | 4 % of control
IRVFLDNNP [Peptide 144] | 5 % of control
IVPPEDERQ [Peptide 92] | 3 % of control
KGIKKWMHN [Peptide 190] | 6 % of control
LCECSEAAR [Peptide 33] | 0 % of control
LDNNPWVCD [Peptide 146] | 3 % of control
LELNSADLD [Peptide 168] | 3 % of control
LGIVLALIG [Peptide 180] | 0 % of control
LHLEDNALK [Peptide 132] | 0 % of control
